Data from patent US20200207869A1.
Blank lines part the entries; values can stand above or below the substance they belong to.

Key:
[1] = biological target: VWF in the plasma of the mice (endogenous murine VWF) (murine) (UniProt Q8CIZ8); assay: sandwich ELISA of mouse plasma, anti-VWF capture, anti-FVIII detection; reference arbitrarily set as 100%
[2] = biological target: purified recombinant human VWF (human) (UniProt P04275); assay: BLI (Octet-QK), rhVWF immobilized, FVIII 1.4 nM, single exponential decay
[3] = biological target: purified recombinant human VWF (human) (UniProt P04275); assay: BLI (Octet-QK), rhVWF immobilized, FVIII 3.5 nM, single exponential decay
[4] = biological target: VWF in the plasma of the mice (endogenous murine VWF) (murine) (UniProt Q8CIZ8); assay: sandwich ELISA of mouse plasma, anti-VWF capture, anti-FVIII detection

VWF-FVIII complex relative to WT-FVIII-SQ [1]: 100%
Substance: wild-type B-domainless FVIII (WT-FVIII-SQ) (from UniProt P00451 20-2351)

koff [2]: 0.003 s⁻¹
koff [3]: 0.0022 s⁻¹
Substance: purified recombinant full-length factor VIII (Kogenate), P00451 20-2351

VWF-FVIII complex relative to WT-FVIII-SQ [4]: 8%
Substance: B-domainless FVIII containing a Tyr to Phe replacement at position 1680 (FVIII-SQ/p.Y1680F) (from UniProt P00451 20-2351)
